Data on four molecules can be found in US20260226161A1 (EXELIXIS, published 2026).

Assay [1] has as its target T1, PD-L1 expressed on cells (UniProt Q9NZQ7 19-290, limits assumed). As to the kind of experiment: cell-based or functional assay.
In assay [2] the target is T1, PD-L1 expressed on cells. As to the kind of experiment: flow cytometry on MC/CAR cells expressing PD-L1. The method, then:
(§1) Cells were collected by centrifugation at 400×g for 7 minutes and primary antibody was removed. 50 μL per well of AF488 goat anti human IgG Fab (Jackson Immuno Research 109-547-003) at 1:100 dilution was added. Plates were placed at 4° C. for 30 minutes.
(§2) Cells were collected by centrifugation at 400×g for 7 minutes and secondary antibody was removed. Cells were resuspended in 50 μL per well of PBS and analyzed by flow cytometry. Binding curves were calculated using the mean fluorescence intensity (MFI) of the FITC fluorescence signal on the cells. Bispecific antibody binding was evaluated in KHYG-1 cells expressing endogenous NKG2A and in MC/CAR cells expressing PD-L1. Cells were harvested and assayed for binding as described above.

Assay [3] deals with T2, Human NKG2A & CD94 with mouse IgG2a Fc tag (AcroBiosystems) (human, UniProt P26715 94-233; Q13241 32-179, limits assumed).
T2 construct: Bought soluble antigen of the Carterra assay; also called hNKG2A; not shown: mouse IgG2a Fc tag
T2 sequence (P26715 94-233 limits assumed, chain 1 of 2): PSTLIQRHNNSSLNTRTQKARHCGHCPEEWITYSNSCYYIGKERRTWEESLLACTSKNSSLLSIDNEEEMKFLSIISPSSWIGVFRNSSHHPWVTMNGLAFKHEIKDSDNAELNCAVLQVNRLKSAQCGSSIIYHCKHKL
T2 sequence (Q13241 32-179 limits assumed, chain 2 of 2): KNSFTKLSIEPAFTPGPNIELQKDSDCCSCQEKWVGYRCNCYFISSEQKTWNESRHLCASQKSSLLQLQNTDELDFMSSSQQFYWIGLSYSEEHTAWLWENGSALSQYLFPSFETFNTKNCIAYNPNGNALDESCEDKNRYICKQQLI
The experiment in a line: SPR (Carterra), antibody on chip, soluble antigen.

The target in assay [4] is T3, Human PD-L1 with His tag (AcroBiosystems) (human, UniProt Q9NZQ7 19-238).
T3 construct: Bought protein; also called hPD-L1; not shown: His tag
T3 sequence (Q9NZQ7 19-238 limits assumed): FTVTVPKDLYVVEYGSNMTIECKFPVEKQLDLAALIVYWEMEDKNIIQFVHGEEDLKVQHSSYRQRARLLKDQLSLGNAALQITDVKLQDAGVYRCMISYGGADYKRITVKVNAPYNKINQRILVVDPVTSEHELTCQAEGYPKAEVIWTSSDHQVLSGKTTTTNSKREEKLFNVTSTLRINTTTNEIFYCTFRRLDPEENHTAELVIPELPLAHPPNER
The experiment in a line: SPR (Carterra), antibody on chip, soluble antigen.

Another assay addresses Cyno PD-L1 (cyno, UniProt G7PSE7 19-238). The experiment in a line: SPR (Carterra), antibody on chip, soluble antigen.
In assay [5] the target is T4, NKG2A expressed on KHYG-1 cells (endogenous) (human, UniProt P26715 1-233; Q13241 1-179).
T4 construct: whole, on cells; Surface NKG2A copy number of approximately 10-20K; also called KHYG-1 cells expressing endogenous NKG2A; NKG2A-expressing cells
T4 sequence (P26715 whole entry, chain 1 of 2): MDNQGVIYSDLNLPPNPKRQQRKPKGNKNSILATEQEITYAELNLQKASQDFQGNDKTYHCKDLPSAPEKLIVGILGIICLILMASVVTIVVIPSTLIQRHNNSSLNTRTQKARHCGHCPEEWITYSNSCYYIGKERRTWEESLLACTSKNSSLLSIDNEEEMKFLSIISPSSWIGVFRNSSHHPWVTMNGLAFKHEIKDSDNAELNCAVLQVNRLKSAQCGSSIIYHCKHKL
T4 sequence (Q13241 whole entry, chain 2 of 2): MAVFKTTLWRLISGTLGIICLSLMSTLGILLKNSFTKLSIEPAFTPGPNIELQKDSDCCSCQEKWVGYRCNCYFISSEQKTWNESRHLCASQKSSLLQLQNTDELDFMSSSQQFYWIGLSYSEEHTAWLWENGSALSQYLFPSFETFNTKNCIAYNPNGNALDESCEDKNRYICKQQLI
As to the kind of experiment: flow cytometry on KHYG-1 cells expressing endogenous NKG2A. Here is the method: as §1, §2

The target in assay [6] is T4, NKG2A expressed on KHYG-1 cells …. The experiment in a line: flow cytometry competition; inhibition of HLA-E tetramer binding to KHYG-1 cells. The method, then: 15 μL per well of binder dilution at 2× concentration was plated in a 96-well plate (Costar 3897). 15 μL per well of cell suspension at 5×10⁶ cells per mL was added. Plates were placed at 4° C. for 30 minutes. Following the incubation, 5 μL per well of Fc block (BD Pharmingen Cat #564220) was added at a final concentration of 500 ng per well. Plates were placed at 4° C. for 10 minutes. […] Plates were placed at 4° C. for 1 hour. Following the incubation, 100 μL per well of PBS was added and plate was centrifuged at 400×g for 7 minutes. Supernatant was removed by flicking the plate. Cells were resuspended in 50 μL per well of PBS and analyzed by flow cytometry (Intellicyt).

T1 sequence (Q9NZQ7 19-290 limits assumed): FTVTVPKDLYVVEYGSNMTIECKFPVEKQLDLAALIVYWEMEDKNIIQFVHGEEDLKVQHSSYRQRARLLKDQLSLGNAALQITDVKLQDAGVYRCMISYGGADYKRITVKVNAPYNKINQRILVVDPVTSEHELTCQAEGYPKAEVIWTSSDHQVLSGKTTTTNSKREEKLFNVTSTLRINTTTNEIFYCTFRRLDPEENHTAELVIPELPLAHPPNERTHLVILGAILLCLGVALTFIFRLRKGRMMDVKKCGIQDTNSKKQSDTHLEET
Sequence of Cyno PD-L1 (G7PSE7 entry or part of it limits assumed): as the sequence (Q9NZQ7 19-238 limits assumed) above, with A33T, A34S, S62N, R68Q, Q82R, F173L, T185A, T192I, H215L counted along it

B1: P12 × A2A2 (1 × 2 format) (bispecific antibody)
heavy 1: DIQMTQSPSSLSASVGDRVTITCRASQSVSSAVAWYQQKPGKAPKLLIYSASSLYSGVPSRFSGSRSGTDFTLTISSLQPEDFATYYCQQFMLEPITFGQGTKVEIKGQPREPQVCTLPPSRDELTKNQVSLTCLVRGFYPSDIAVEWESNGQPENNYKTTPPVLDSDGSFFLYSKLTVDKSRWQQGNVFSCSVMHEALHNHYTQKSLSLSPGKDKTHTCPPCPAPEAAGGPSVFLFPPKPKDTLMISRTPEVTCVVVDVSHEDPEVKFNWYVDGVEVHNAKTKPREEQYNSTYRVVSVLTVLHQDWLNGKEYKCKVSNKALKAPIEKTISKAKGQPREPQVYTLPPSREEMTKNQVSLSCAVKGFYPSDIAVEWESNGQPENNYKTTPPVLDSDGSFFLVSKLTVDKSRWQQGNVFSCSVMHEALHNHYTQKSLSLSPGK
light 1: EVQLVESGGGLVQPGGSLRLSCAASGFTFSSYYIHWVRQAPGKGLEWVATINSRGGFTLYADSVKGRFTISADTSKNTAYLQMNSLRAEDTAVYYCARGYTLTPVLDYWGQGTLVTVSSAQPREPQVYTLPPCRDWLTKNQVSLTCLVKGFYPSDIAVEWESNGQPENNYKTTPPVLDSDGSFFLYSKLTVDKSRWQQGNVFSCSVMHEALHNHYTQKSLSLSPGK
heavy 2: not shown
light 2: EVQLVESGGGLVQPGGSLRLSCAASGFTFSSYYIHWVRQAPGKGLEWVASYVPEDGYTDYADSVKGRFTISADTSKNTAYLQMNSLRAEDTAVYYCARSSDFIPWTSSGGMDYWGQGTLVTVSSASTKGPSVFPLAPSSKSTSGGTAALGCLVKDYFPEPVTVSWNSGALTSGVHTFPAVLQSSGLYSLSSVVTVPSSSLGTQTYICNVNHKPSNTKVDKKVEPKSC
notes: One PD-L1 site, two NKG2A sites; also called P12×A2A2, sFc; P12 × A2A2 sFc
On to B1, for which the “IC50 of inhibiting PD-1/PD-L1 interaction in PD-L1+MDA-MB-231 cells (PD-1/PD-L1 Signaling Bioassay, chemiluminescent signal)” value in the assay with PD-L1 expressed on cells [1] came to 0.689 nM. The EC50 came to 6.49 nM in the assay with PD-L1 expressed on cells [2], 0.149 nM in assay [5] and 0.36 nM in assay [6]. Further, the Kd is 0.15 nM in assay [3], 0.15 nM in assay [4] and 0.12 nM in the assay with Cyno PD-L1. Also, the values for the off-rate (koff) (in assay [3]; in assay [4]; with Cyno PD-L1) were 5e-05 s⁻¹, 7e-05 s⁻¹ and 5e-05 s⁻¹, respectively. Moreover, the results for the kon (in assay [3]; in assay [4]; with Cyno PD-L1) were 360000 M⁻¹ s⁻¹, 470000 M⁻¹ s⁻¹ and 480000 M⁻¹ s⁻¹, respectively.

B2: P12P12 × A11 (2 × 1 format) (bispecific antibody)
heavy 1: DIQMTQSPSSLSASVGDRVTITCRASQSVSSAVAWYQQKPGKAPKLLIYSASSLYSGVPSRFSGSRSGTDFTLTISSLQPEDFATYYCQQFMLEPITFGQGTKVEIKGQPREPQVCTLPPSRDELTKNQVSLTCLVRGFYPSDIAVEWESNGQPENNYKTTPPVLDSDGSFFLYSKLTVDKSRWQQGNVFSCSVMHEALHNHYTQKSLSLSPGKTASSGGSSSGDIQMTQSPSSLSASVGDRVTITCRASQSVSSAVAWYQQKPGKAPKLLIYSASSLYSGVPSRFSGSRSGTDFTLTISSLQPEDFATYYCQQFMLEPITFGQGTKVEIKGQPREPQVCTLPPSRDELTKNQVSLTCLVRGFYPSDIAVEWESNGQPENNYKTTPPVLDSDGSFFLYSKLTVDKSRWQQGNVFSCSVMHEALHNHYTQKSLSLSPGKDKTHTCPPCPAPEAAGGPSVFLFPPKPKDTLMISRTPEVTCVVVDVSHEDPEVKFNWYVDGVEVHNAKTKPREEQYNSTYRVVSVLTVLHQDWLNGKEYKCKVSNKALKAPIEKTISKAKGQPREPQVYTLPPSREEMTKNQVSLSCAVKGFYPSDIAVEWESNGQPENNYKTTPPVLDSDGSFFLVSKLTVDKSRWQQGNVFSCSVMHEALHNHYTQKSLSLSPGK
light 1: EVQLVESGGGLVQPGGSLRLSCAASGFTFSSYYIHWVRQAPGKGLEWVATINSRGGFTLYADSVKGRFTISADTSKNTAYLQMNSLRAEDTAVYYCARGYTLTPVLDYWGQGTLVTVSSAQPREPQVYTLPPCRDWLTKNQVSLTCLVKGFYPSDIAVEWESNGQPENNYKTTPPVLDSDGSFFLYSKLTVDKSRWQQGNVFSCSVMHEALHNHYTQKSLSLSPGK
heavy 2: not shown
light 2: EVQLVESGGGLVQPGGSLRLSCAASGFTFSWYYIHWVRQAPGKGLEWVAVIDPISSYTYYADSVKGRFTISADTSKNTAYLQMNSLRAEDTAVYYCARGFDRAMDYWGQGTLVTVSSASTKGPSVFPLAPSSKSTSGGTAALGCLVKDYFPEPVTVSWNSGALTSGVHTFPAVLQSSGLYSLSSVVTVPSSSLGTQTYICNVNHKPSNTKVDKKVEPKSC
notes: Two PD-L1 sites, one NKG2A site; also called P12P12 × A11 sFc
On to B2, for which the “IC50 of inhibiting PD-1/PD-L1 interaction in PD-L1+MDA-MB-231 cells (PD-1/PD-L1 Signaling Bioassay, chemiluminescent signal)” value with PD-L1 expressed on cells [1] came to 0.405 nM. For the same molecule, the EC50 was determined as 3.23 nM in the assay with PD-L1 expressed on cells [2] and 1.99 nM in assay [5].

B3: P12 × A11A11 (1 × 2 format) (bispecific antibody)
heavy 1: DIQMTQSPSSLSASVGDRVTITCRASQSVSSAVAWYQQKPGKAPKLLIYSASSLYSGVPSRFSGSRSGTDFTLTISSLQPEDFATYYCQQFMLEPITFGQGTKVEIKGQPREPQVCTLPPSRDELTKNQVSLTCLVRGFYPSDIAVEWESNGQPENNYKTTPPVLDSDGSFFLYSKLTVDKSRWQQGNVFSCSVMHEALHNHYTQKSLSLSPGKDKTHTCPPCPAPEAAGGPSVFLFPPKPKDTLMISRTPEVTCVVVDVSHEDPEVKFNWYVDGVEVHNAKTKPREEQYNSTYRVVSVLTVLHQDWLNGKEYKCKVSNKALKAPIEKTISKAKGQPREPQVYTLPPSREEMTKNQVSLSCAVKGFYPSDIAVEWESNGQPENNYKTTPPVLDSDGSFFLVSKLTVDKSRWQQGNVFSCSVMHEALHNHYTQKSLSLSPGK
light 1: EVQLVESGGGLVQPGGSLRLSCAASGFTFSSYYIHWVRQAPGKGLEWVATINSRGGFTLYADSVKGRFTISADTSKNTAYLQMNSLRAEDTAVYYCARGYTLTPVLDYWGQGTLVTVSSAQPREPQVYTLPPCRDWLTKNQVSLTCLVKGFYPSDIAVEWESNGQPENNYKTTPPVLDSDGSFFLYSKLTVDKSRWQQGNVFSCSVMHEALHNHYTQKSLSLSPGK
heavy 2: not shown
light 2: EVQLVESGGGLVQPGGSLRLSCAASGFTFSWYYIHWVRQAPGKGLEWVAVIDPISSYTYYADSVKGRFTISADTSKNTAYLQMNSLRAEDTAVYYCARGFDRAMDYWGQGTLVTVSSASTKGPSVFPLAPSSKSTSGGTAALGCLVKDYFPEPVTVSWNSGALTSGVHTFPAVLQSSGLYSLSSVVTVPSSSLGTQTYICNVNHKPSNTKVDKKVEPKSC
notes: One PD-L1 site, two NKG2A sites; also called P12×A11A11, sFc; P12 × A11A11 sFc
B3: the “IC50 of inhibiting PD-1/PD-L1 interaction in PD-L1+MDA-MB-231 cells (PD-1/PD-L1 Signaling Bioassay, chemiluminescent signal)” value with PD-L1 expressed on cells [1] came to 0.567 nM. For the same molecule, the EC50 came to 1.76 nM with PD-L1 expressed on cells [2], 0.168 nM in assay [5] and 0.42 nM in assay [6]. Further, the Kd in assay [3] turned out to be 0.34 nM; in assay [4] it was 0.24 nM; with Cyno PD-L1, 0.13 nM. For the same molecule, the koff in assay [3] stood at 9e-05 s⁻¹; in assay [4], 9e-05 s⁻¹; in the assay with Cyno PD-L1, 6e-05 s⁻¹. Moreover, the kon in assay [3] is 270000 M⁻¹ s⁻¹; in assay [4], 380000 M⁻¹ s⁻¹; with Cyno PD-L1, 470000 M⁻¹ s⁻¹.

B4: P12P12 × A2 (2 × 1 format) (bispecific antibody)
heavy 1: DIQMTQSPSSLSASVGDRVTITCRASQSVSSAVAWYQQKPGKAPKLLIYSASSLYSGVPSRFSGSRSGTDFTLTISSLQPEDFATYYCQQFMLEPITFGQGTKVEIKGQPREPQVCTLPPSRDELTKNQVSLTCLVRGFYPSDIAVEWESNGQPENNYKTTPPVLDSDGSFFLYSKLTVDKSRWQQGNVFSCSVMHEALHNHYTQKSLSLSPGKTASSGGSSSGDIQMTQSPSSLSASVGDRVTITCRASQSVSSAVAWYQQKPGKAPKLLIYSASSLYSGVPSRFSGSRSGTDFTLTISSLQPEDFATYYCQQFMLEPITFGQGTKVEIKGQPREPQVCTLPPSRDELTKNQVSLTCLVRGFYPSDIAVEWESNGQPENNYKTTPPVLDSDGSFFLYSKLTVDKSRWQQGNVFSCSVMHEALHNHYTQKSLSLSPGKDKTHTCPPCPAPEAAGGPSVFLFPPKPKDTLMISRTPEVTCVVVDVSHEDPEVKFNWYVDGVEVHNAKTKPREEQYNSTYRVVSVLTVLHQDWLNGKEYKCKVSNKALKAPIEKTISKAKGQPREPQVYTLPPSREEMTKNQVSLSCAVKGFYPSDIAVEWESNGQPENNYKTTPPVLDSDGSFFLVSKLTVDKSRWQQGNVFSCSVMHEALHNHYTQKSLSLSPGK
light 1: EVQLVESGGGLVQPGGSLRLSCAASGFTFSSYYIHWVRQAPGKGLEWVATINSRGGFTLYADSVKGRFTISADTSKNTAYLQMNSLRAEDTAVYYCARGYTLTPVLDYWGQGTLVTVSSAQPREPQVYTLPPCRDWLTKNQVSLTCLVKGFYPSDIAVEWESNGQPENNYKTTPPVLDSDGSFFLYSKLTVDKSRWQQGNVFSCSVMHEALHNHYTQKSLSLSPGK
heavy 2: not shown
light 2: EVQLVESGGGLVQPGGSLRLSCAASGFTFSSYYIHWVRQAPGKGLEWVASYVPEDGYTDYADSVKGRFTISADTSKNTAYLQMNSLRAEDTAVYYCARSSDFIPWTSSGGMDYWGQGTLVTVSSASTKGPSVFPLAPSSKSTSGGTAALGCLVKDYFPEPVTVSWNSGALTSGVHTFPAVLQSSGLYSLSSVVTVPSSSLGTQTYICNVNHKPSNTKVDKKVEPKSC
notes: Two PD-L1 sites, one NKG2A site; also called P12P12 × A2 sFc
Take B4: the “IC50 of inhibiting PD-1/PD-L1 interaction in PD-L1+MDA-MB-231 cells (PD-1/PD-L1 Signaling Bioassay, chemiluminescent signal)” value with PD-L1 expressed on cells [1] was 0.714 nM. Further, the EC50 with PD-L1 expressed on cells [2] is 8.67 nM; in assay [5], 0.827 nM; in assay [6] it was 46.4 nM.
